Test results reported in the DeepSol protein solubility set.

assay: soluble on expression in E. coli; label from the status in PepcDB or PDB records

Question: Which “soluble on expression in E. coli” value does the source give for “MGFFDDKQDFLEETFAKYPPEGRRAAIMPLLRRVQQEEGWIRPERIEEIARLVGTTPTEVMGVASFYSYYQFVPTGKYHLQVCATLSCKLAGAEELWDYLTETLGIGPGEVTPDGLFSVQKVECLGSCHTAPVIQVNDEPYVECVTRARLEALLAGLRAGKRLEEIELPGKCGHHVHEVEVLEHHHHHH” here?
Answer: The value was “soluble”.

Question: For “MGGEDDELKGLLGLPEEETELDNLTEFNTAHNKRISTLTIEEGNLDIQRPKRKRKNSRVTFSEDDEIINPEDVDPSVGRFRNMVQTAVVPVKKKRVEGPGSLGLEESGSRRMQNFAFSGGLYGGLPPTHSEAGSQPHGIHGTALIGGLPMPYPNLAPDVDLTPVVPSAVNMNPAPNPAVYNPEAVNEPKKKKYAKEAWPGKKPTPSLLI”, which “soluble on expression in E. coli” value is on record?
Answer: Its value is “soluble”.

Question: Which “soluble on expression in E. coli” value does the source give for “MGGFGLKYRPVPIKRVLPGSIAQESDLQEGDLILSINGQKISDIFDYRFLIADENLVLEVQKKNGEIWEIEIEKDEYEDLGIEFENLMIDDTKSCRNKCIFCFIDQLPKGMRETLYFKDDDSRLSFFMGNYVTLTNMSYDDIDRIIKYKMSPINVSVHTSNPELRVYMLRNKTAGDVMDKIKRLIEGGIKVNAQIVLVRGVNDGKELDRTLKDLSALYPGLNSISVVPVGITKYREGLYELKPFDMESSREVIKQVEAWQMELLSKYGSRIVFIADEFYIMAGLEIPDYCVYEDFPQIENGVGLVAMLKKEFDDYFEELELKLENKREVSIATGVSSYKYIKEMIDILENKYKNLYVHVYKIKNNFFGENVTVTGLLTGQDIERQLSGKNLGRELLLSESMLKSGERVFLDDYTVEMLEDKLKTKITIVRNNGKDFIEKVLGIVL” here?
Answer: The value was “soluble”.

Question: Which “soluble on expression in E. coli” value does the source give for “MGGGPALNRDSSRHARPFISSPVKTLAIIPAFNEAQAIGPVLGDLPDGWVDEVVVVNNASTDATKANARAAGATVVDEPQQGYGAACLRGIAYAETRQPDVVVFLDGDYSDHPEELPRLVEPIAADEADFVVGSRIRGDAEPGALLPQAQVGNRFACSLMARLWGADYTDLGPFRAIRFRDLLALDMQDETFGWTIEMQIRALEAGLRVEEVPVSYRRGIGPSKITGTLSGTVKASAKILWTIGRMAATTHRRAPRLRERVDRARTDAPTPNPGGLEHHHHHH” here?
Answer: Its value is “not soluble”.

Question: For “MGGGRMGQHVETLVIGAGPAGLTTAYTLAKAGRGVTVLEMDETYVGGISRTVDYKGFKFDIGGHRFFSKSQEIVDLWNEILPDDFIDRPRLSRIYYREKFYAYPLKAFEALANLGVWTAAKCMASFGWAKLTPIAAPTTFHQWVRNQFGEKLFSIFFKTYTEKVWGMSCDEISADWASQRIKGLDLGAAIIDGVKRSLGLRGKAAEGGPKTLIESFRYPRKGPGMMWEACADKVMALGGDVRMGRKVDGLHFDKIAKLWTVAVTCADGRKEIYTADNVVSSAPIRELMQSISPTPISVFHAGELMYRDFITVVLIGKPQKELPDNWIYIHDPSVKVGRVQNFRSWSPEMIPDGVSTCLGLEYFCFEGDGLWVTSDEELVAQAKREIGKIGLMAPADVYDACVVRQHKAYPVYDDAYAEHVKMIRLDLKMHFPGLHLVGRNGMHKYNNQDHAMMTGLLTAENIIAGETLHDVWEVNEDAEYGEAGVSGARQALRSERAVPTKVAALEHHHHHH”, which “soluble on expression in E. coli” value is on record?
Answer: Its value is “not soluble”.

Question: With “MGGLQQRCLWEVVTPRLSGAASLNGEQRADVCVIGAGFTGLSAALHLLEAGRSVCVLEAYEVGHGGSGRNVGLINAGTWIPPDEVVATLGAEQGEKLNAVLGRAPALVMETIERLGIDCQLRREGTLHMSHNASGVADLQRRHAQWTRRGAPLELLTGAACHEACGTRRISAALLDRRAGTLNPMAYSRGLATAVVQRGGQLYQRSPVLALERQGALWAVRSSAGAVLAEQVVIASNAYTEGEWTNLRRHFFPGYYYQVASAPLHGAAAERILPHGQGSWDTRTVLSSIRRDAQGRLLLGSLGNGANKPAWFLRQWADRIQSHYFPDLGQVNWEYSWTGCIAFTPDHLMRLFEPAEGLLAVTGYNGRGVTTGTVVGKAFADYLLSGERATLPLPFSDMKPVPAARLRSCAYEMGFSLYHAGQCLRVVLLEHHHHHH” as the sequence, how does the “soluble on expression in E. coli” value read?
Answer: The value was “soluble”.

Question: Which “soluble on expression in E. coli” value does the source give for “MGGMHAHVILAAGQGTRMRSRLPKVLHPLLGKPMLLYALEAALALKPERLVVVVGHGGEKVVEALEGYPVEVAWQKEQLGTAHALLQAEGLLRDFPGPFLVTQGDTPLLSPRTLEALLRRVREGAGMALLTAELPDPTGYGRILREGEEVLGNVEEKDAPPEVRAIREVNAGAYAFDGFLFQALKEVRNENAAREYYLPDLIAIYRAHGRRVLAVRGVAEEALGVNTREELARVEGVLLRRLRAEWMGKGVRMILPETIYLEPSVELAPDVTLWPGAVLKGKTRIGEGCEVGPYAVLEDTVLEPGAKVLAHTVAQGAHLHPGASAGPFARLRPGAVLMEEVHVGNFVEVKNSLLHKGVKAGHLAYLGDAEVGEGTNIGAGVITANYDGKRKHKTEIGKKAFIGSNSVLVAPVRVGDRALVGAGSVITQDVPEGALAVARERQKNLEGYALRKLGEG” here?
Answer: The value was “soluble”.

Question: Which “soluble on expression in E. coli” value does the source give for “MGGMPITSFKFLYYFQIDDGDEETDIYLSPKEKATQTFSIKYNNNNTPTFSGDLRAGEKYTFDFHINFYDFATITIVQKREGEEELRIEYLNIPVEKRSEDHFERHF” here?
Answer: Its value is “not soluble”.

Question: With “MGGSHHHHHHGMASALKEAMVQAEEAAAEITRKLEKQEKKRLKKEKKRLAALALASSENSSSTPEECEEMSEKPKKKKKQKPQEVPQENGMEDPSISFSKPKKKKSFSKEELMSSDLEETAGSTSIPKRKKSTPKEETVNDPEEAGHRSGSKKKRKFSKEEPVSSGPEEAVGKSSSKKKKKFHKASQED” as the sequence, how does the “soluble on expression in E. coli” value read?
Answer: The value was “not soluble”.

Question: With “MGGSHHHHHHGMASALVRISKPKTFQAYLDDCHRRYSCAHCRAHLANHDDLISKSFQGSQGRAYLFNSVVNVGCGPAEERVLLTGLHAVADIHCENCKTTLGWKYEQAFESSQKYKEGKYIIELNHMIKDNGWD” as the sequence, how does the “soluble on expression in E. coli” value read?
Answer: Its value is “not soluble”.

Question: With “MGGSHHHHHHGMASGSAGLSRLHGLFAVYKPPGLKWKHLRDTVELQLLKGLNARKPPAPKQRVRFLLGPMEGSEEKELTLTATSVPSFINHPLVCGPAFAHLKVGVGHRLDAQASGVLVLGVGHGCRLLTDMYNAHLTKDYTVRGLLGKATDDFREDGRLVEKTTYDHVTREKLDRILAVIQGSHQKALVMYSNLDLKTQEAYEMAVRGLIRPMNKSPMLITGIRCLYFAPPEFLLEVQCMHETQKELRKLVHEIGLELKTTAVCTQVRRTRDGFFTLDSALLRTQWDLTNIQDAIRAATPQVAAELEKSLSPGLDTKQLPSPGWSWDSQGPSSTLGLERGAGQ” as the sequence, how does the “soluble on expression in E. coli” value read?
Answer: Its value is “not soluble”.

Question: Which “soluble on expression in E. coli” value does the source give for “MGGSHHHHHHGMASGSPPTQPSPASDSGSGYVPGSVSAAFVTCPNEKVAKEIARAVVEKRLAACVNLIPQITSIYEWKGKIEEDSEVLMMIKTQSSLVPALTDFVRSVHPYEVAEVIALPVEQGNFPYLQWVRQVTESVSDSITVLP” here?
Answer: The value was “soluble”.

Question: For “MGGSHHHHHHGMASPLLTQQIQDEDDQYSLVASLDNVRNLSTILKAIHFREHATCFATKNGIKVTVENAKCVQANAFIQAGIFQEFKVQEESVTFRINLTVLLDCLSIFGSSPMPGTLTALRMCYQGYGYPLMLFLEEGGVVTVCKITTQEPEETLDFDFCSTNVINKIILQSEGLREAFSELDMTSEVLQITMSPDKPYFRLSTFGNAGSSHLDYPKDSDLMEAFHCNQTQVNRYKISLLKPSTKALVLSCKVSIRTDNRGFLSLQYMIRNEDGQICFVEYYCCPDEEVPESES”, which “soluble on expression in E. coli” value is on record?
Answer: Its value is “not soluble”.

Question: With “MGGVKKNALLDYVFTKALENLTALFTQLNITAVKEIIRPLETGHEAYFVLPIDARTLKVLMIELEESIPLARLWDLDVFNAKGNLLSRTDFDLSPRTCLVCGENAKICARTHKHEIDEIVDKIQSLAQNHDFAEHIGEQVYLALIQEARLSPKPGLVDAINNGSHKDMNLHTFEQSAISLKPFFTQFVLKGMMTAHLSENQILSEIRPLGLLAEKAMFKVTDGVNTHKGAIFSFGLVCTAIGRLLAQKSLVQSAVDFDVKLICSLVAQFTQGLTDELKNYPEHLPSTAGVRLFQKYGLTGVRGEAENGFNLIQTLLPQFDEYHQLEWEHRLLILLLNLMAINSDTNVVHRGGLAGLYFIQQTAQDLLTDQHLVTDKTALTQALMKFDTACIERNLSSGGSADLLALTIFFLSFRGN” as the sequence, how does the “soluble on expression in E. coli” value read?
Answer: The value was “not soluble”.

Question: Which “soluble on expression in E. coli” value does the source give for “MGHGEEPLTATYKTQRPPWIGLWSDREYKGRADWWKEPGLEDSVTRSGKLRLYRARFREEDPDWYDPKVKDGESLAGPFGLDSKKTKNLTKKGDQPGELSEFQNKVYEGSHQFKAIAEKFGISKEHPGLSVSPTLSDNMLTPKDELGRNAVLPNSWYPAGPRFFDSPLNEGSFWKGLAAAKYAGILLAPYTMLEIRALNTVSVSEFSPRTYMKRYLQLAPFPLAVAFAWGFSLSAASSIRHKDDVHNHWFASVAVGSTVATMKSNVALGTTAAIFTAILGAFWQYQRHSETGLQGMTAHPQSAGIWGGPLLWQKMQLGNADVPTTRY” here?
Answer: The value was “not soluble”.

Question: For “MGHHHHHHENLYFQSHLYFQSHERLSEKKIKNLLTSKQQRQQYEIKQRSMLRHLAELRRHSRFRRLCTKPASSSMPASTSSVDRRTTRRSTSQTSLSPSNSSGYGSVFGCEEHDVDKIPSLNGFAKLKRRRSSCVGAPTPNSKRSKNNMGVIAKRPPKGEYVVERIECVEMD”, which “soluble on expression in E. coli” value is on record?
Answer: The value was “not soluble”.

Question: With “MGHHHHHHGGHMSLIDLHIHSNYSDGQGSVEEIARRAKERGLKAIAIVDHSIELPFGLTEKKARMREIEIENAASLYGIKIYSGIECSINAAGEIVLPDFDFDFIIASVHEFVYGQAYYERVIRCLESHDVDVLGHPFSPLFGFDGRLAEMDEKLLDVVEERGVAVELNSSHKSPQDEFLQLCRDRKIAYSIGSDAHSLSGVGEVGWSVEKAKRYMAGAKLFTPEGGS” as the sequence, how does the “soluble on expression in E. coli” value read?
Answer: Its value is “soluble”.

Question: Which “soluble on expression in E. coli” value does the source give for “MGHHHHHHGGHMSLRSYLGSISTSKTEVNSMKMHVLKLLIPTMALLLSACASLPPELGNPDDKSVVTQYSAWLERDPATQSPVRMGGVVANISNQKDRTRVELVNLPIDSAGRPNIHQEPQGRFVAYVPGFLDPITYGEGRLLTLYGTTAPSEQGKVGDYEHTYPVMNAQGYHLWRVEERVEVDDIGPYMFPCRGFYCWPRTMPERDGKIIQEVKEGGS” here?
Answer: The value was “not soluble”.

Question: For “MGHHHHHHGGHMSLTKKLHIKTWGCQMNEYDSSKMADLLDATHGYQLTDVAEEADVLLLNTCSIREKAQEKVFHQLGRWKLLKEKNPDLIIGVGGCVASQEGEHIRQRAHYVDIIFGPQTLHRLPEMINSVRGDRSPVVDISFPEIEKFDRLPEPRAEGPTAFVSIMEGCNKYCTYCVVPYTRGEEVSRPSDDILFEIAQLAAQGVREVNLLGQNVNAWRGENYDGTTGSFADLLRLVAAIDGIDRIRFTTSHPIEFTDDIIEVYRDTPELVSFLHLPVQSGSDRILNLMGRTHTALEYKAIIRKLRAARPDIQISSDFIVGFPGETTEDFEKTMKLIADVNFDMSYSFIFSARPGTPAADMVDDVPEEEKKQRLYILQERINQQAMAWSRRMLGTTQRILVEGTSRKSIMELSGRTENNRVVNFEGTPDMIGKFVDVEITDVYPNSLRGKVVRTEDEMGLRVAETPESVIARTRKENDLGVGYYQPEGGS”, which “soluble on expression in E. coli” value is on record?
Answer: Its value is “soluble”.

Question: For “MGHHHHHHGSSSCAVSGASGCLPPARSRIFKIIVIGDSNVGKTCLTYRFCAGRFPDRTEATIGVDFRERAVDIDGERIKIQLWDTAGQERFRKSMVQHYYRNVHAVVFVYDMTNMASFHSLPAWIEECKQHLLANDIPRILVGNKCDLRSAIQVPTDLAQKFADTHSMPLFETSAKNPNDNDHVEAIFMTLAHKLKSH”, which “soluble on expression in E. coli” value is on record?
Answer: Its value is “soluble”.

Question: With “MGHHHHHHSHAAAIAGAKLRKVSRMEDTSFPSGGNAIGVNSASSKTDTGRGNGPLPLGGSGLMEEMSALLARRRRIAEKGSTIETEQKEDKGEDSEPVTSKASSTSTPEPTRKPWERTNTMNGSKSPVISRPKSTPLSQPSANGVQTEGLDYDRLKQDILDEMRKELTKLKEELIDAIRQELSKSNTA” as the sequence, how does the “soluble on expression in E. coli” value read?
Answer: The value was “soluble”.
